Source: article PMC8754118, “The PqsE-RhlR Interaction Regulates RhlR DNA Binding to Control Virulence Factor Production in Pseudomonas aeruginosa” (Microbiology Spectrum, 2022)

B1: RhlR bound to meta-bromo-thiolactone (RhlR:mBTL) (receptor)
chain: MRNDGGFLLWWDGLRSEMQPIHDSQGVFAVLEKEVRRLGFDYYAYGVRHTIPFTRPKTEVHGTYPKAWLERYQMQNYGAVDPAILNGLRSSEMVVWSDSLFDQSRMLWNEARDWGLCVGATLPIRAPNNLLSVLSVARDQQNISSFEREEIRLRLRCMIELLTQKLTDLEHPMLMSNPVCLSHREREILQWTADGKSSGEIAIILSISESTVNFHHKNIQKKFDAPNKTLAAAYAAALGLI

Experiments:
[1] = tested on: RhlR:mBTL;PqsE (Pseudomonas aeruginosa;Pseudomonas aeruginosa); assay: EMSA; conditions: scale: fold higher affinity than RhlR:mBTL alone
[2] = target: 6x-His-PqsE(E182W) (P. aeruginosa, UniProt P20581 1-301, E182W); assay: cell-based or functional assay
[3] = target: 6x-His-PqsE(E182W/S285W) (P. aeruginosa, UniProt P20581 1-301, E182W | S285W); assay: cell-based or functional assay
[4] = target: 6x-His-PqsE (wild type) (P. aeruginosa, UniProt P20581 1-301); assay: cell-based or functional assay

Row | Molecule | binding signal [1] | bioluminescence from prhlA-luxCDABE in E. coli carrying rhlR and pqsE(E182W), 500 nM C4HSL, against the no-PqsE control strain [2] | bioluminescence from prhlA-luxCDABE in E. coli carrying rhlR and pqsE(E182W/S285W), 500 nM C4HSL, against the no-PqsE control strain [3] | bioluminescence from prhlA-luxCDABE in E. coli carrying rhlR and pqsE, 500 nM C4HSL, against the strain lacking PqsE [4]
1 | rhlA promoter EMSA probe | 5 | – | – | –
2 | B1 | – | ~11 fold | ~11 fold | 42 fold
